Measured values from US20250290928A1, “METHOD, KIT AND DEVICE FOR DETECTING EXTRACELLULAR VESICLES” (priority 2022, published 2025).
No end group written: not given here. *: point of attachment. 5FAM = O=C1OC2(c3ccc(O)cc3Oc3cc(O)ccc32)c2ccc(C(=O)*)cc21; TQ2 = quencher; TQ3 = quencher

Experiments:
[1] = biological target: T1, MMP14 in the MDA-MB-231-derived extracellular vesicles (Homo sapiens, UniProt P50281); experiment: Digital detection through MMP14 activity of MDA-MB-231-derived extracellular vesicles captured on Tim4-immobilized magnetic particles; assay type: biochemical
T1 construct: in terms of intact MMP14 with a molecular weight of 70 kDa
Method: Magnetic particles included in PS Capture (trademark) Exosome Flow Cytometry Kit (manufactured by FUJIFILM Corporation) were used as magnetic particles. In this kit, binding of an extracellular vesicle to a Tim4-immobilized magnetic particle is utilized.
800 μL of Exosome Capture Beads were aliquoted in a 1.5 mL microtube, vortexed for 5 seconds, spun down in a benchtop centrifuge, and then placed on a magnetic stand. After still standing for 1 minute, the supernatant was removed by pipetting. 1 mL of x1 WB (+Enhancer) prepared from x10 Washing Buffer and x100 Exosome Binding Enhancer included in the kit was added to the residue, the mixture was vortexed for 5 seconds, spun down in a benchtop centrifuge, and then placed on a magnetic stand. After still standing for 1 minute, the supernatant was removed by pipetting. This operation was repeated three times.
800 μL of the buffer (4) was added to the magnetic particle pellets, and the mixture was vortexed for 30 seconds to provide a homogeneous magnetic particle suspension. 60 μL of the suspension was aliquoted into each of twelve 1.5 mL microtubes.
The concentration of the solution is 4 μg/mL. […] Further, the concentration of the x1/5 solution was set to be the highest concentration, and 10-fold dilution was performed in four stages. Thus, 10-fold dilution samples in a total of five stages were obtained.
The magnetic particle suspension that had been aliquoted in each amount of 60 μL in the section “(Preparation of Particles)” was vortexed for 5 seconds, spun down in a benchtop centrifuge, and then placed on a magnetic stand. After still standing for 1 minute, the supernatant was removed by pipetting.
After that, the above-mentioned mixed solution was spun down in a benchtop centrifuge, then placed on a magnetic stand, and left to stand still for 1 minute. After that, the supernatant was removed by pipetting, 300 μL of the buffer (4) was added to the residue, and the mixture was vortexed for 5 seconds. The mixture was spun down in a benchtop centrifuge, then placed on a magnetic stand, and left to stand still for 1 minute. The same operation was further repeated twice.
For detection of MMP14 activity, 1 mM Custom #1 and Custom #2 were diluted with the buffer (4) to prepare MMP14 detection solutions containing 5 μM Custom #1 and Custom #2, respectively.
The supernatant of the mixed solution of the magnetic particles and the extracellular vesicles subjected to the washing was removed by pipetting, and 60 μL of each of the MMP14 detection solutions was added to each of the magnetic particle pellets to prepare a reaction solution for wells.
Magnosphere (trademark) MS300/Streptavidin (manufactured by JSR Corporation) (hereinafter abbreviated as “MS300S”) was used as magnetic particles. The magnetic particles were modified with Tim4 through use of Biotin-labeled Exosome Capture included in MagCapture (trademark) Exosome Isolation Kit PS Ver. 2 (manufactured by FUJIFILM Corporation) (hereinafter abbreviated as “PS2”) to prepare Tim4-immobilized magnetic particles.
10 μL of Biotin-labeled Exosome Capture was added to the suspension, and the mixture was vortexed for 5 seconds so that the contents were mixed. The mixture was subjected to a reaction for 10 minutes while the contents were mixed by inversion at room temperature with a rotator. After that, the resultant was spun down in a benchtop centrifuge, and then placed on a magnetic stand. After still standing for 1 minute, the supernatant was removed by pipetting. 500 μL of x1 I/WB (±Enhancer) was added to the residue, and the mixture was vortexed for 5 seconds, spun down in a benchtop centrifuge, and then placed on a magnetic stand. After still standing for 1 minute, the supernatant was removed by pipetting. This operation was further repeated twice. […]

[2] = biological target: T2, MMP14 in the A549-derived extracellular vesicles (Homo sapiens, UniProt P50281); experiment: Evaluation of MMP14 activity of A549-derived extracellular vesicles with 96-well plate; assay type: biochemical; conditions: Example 10, buffer (3), reporter 5 μM, 37° C.
T2 construct: host or cells: A549 (purified exosomes)
Method: The MMP14 activity was evaluated with a 96-well plate (manufactured by Thermo Fisher Scientific Inc., model number: 137101). A fluorescence intensity was measured with a fluorescence plate reader (Synergy MX, manufactured by BioTek Instruments, Inc.) at […] every 5 min for 1 hour. For measurement wavelengths, an excitation wavelength of 485±20 nm and a fluorescence wavelength of 528±20 nm were used.
With regard to the COLO201-derived extracellular vesicles, the concentration of the solution was set to x1/10, and 3-fold serial dilution was performed to prepare standard samples with three concentrations.
50 μL of the MMP14 detection solution was added to 50 μL of each of the samples, a reaction was performed at 37° C., and MMP14 activity was evaluated.
The concentration of the solution is 20 μg/mL. […] The concentration of the solution was set to x1, and 10-fold serial dilution was performed to prepare standard samples with five concentrations.
The concentration of the solution is 10 μg/mL.
Evaluation was performed in the same manner as in Example 1 except that the reaction temperature was set to 23° C. ΔRFU was calculated by subtracting the measured value of the sample for BG measurement from the measured value of each of the samples.

[3] = Table 56, Particle MS300C, MB231 Present, 24 hours at 23° C.
[4] = Table 56, Particle Simoa, MB231 Present, 24 hours at 23° C.
[5] = Example 50, MS300S Tim4 particles, 30° C., 4 h
[6] = Table 52, particles modified with Tim4, MB231 concentration x1/5, 4 hr
[7] = Table 52, particles modified with Tim4, MB231 concentration x1/50, 4 hr
[8] = Table 52, particles modified with Tim4, MB231 concentration x1/500, 4 hr
[9] = Table 52, particles modified with Tim4, MB231 concentration x1/5,000, 4 hr
[10] = Table 52, particles modified with Tim4, MB231 concentration x1/50,000, 4 hr
[11] = Table 53, BG subtracted, MB231 concentration x1/5, 4 hr
[12] = Table 53, BG subtracted, MB231 concentration x1/50, 4 hr
[13] = Table 53, BG subtracted, MB231 concentration x1/500, 4 hr
[14] = Table 53, BG subtracted, MB231 concentration x1/5,000, 4 hr
[15] = Table 53, BG subtracted, MB231 concentration x1/50,000, 4 hr
[16] = Table 54, particles immobilized with Tim4, MB231 concentration x1/5, 4 hr
[17] = Table 54, particles immobilized with Tim4, MB231 concentration x1/25, 4 hr
[18] = Table 54, particles immobilized with Tim4, MB231 concentration x1/125, 4 hr
[19] = Table 54, particles immobilized with Tim4, MB231 concentration x1/625, 4 hr
[20] = Table 54, particles immobilized with Tim4, MB231 concentration x1/3,125, 4 hr
[21] = Table 54, particles immobilized with Tim4, MB231 concentration x1/15,625, 4 hr
[22] = Table 54, particles immobilized with Tim4, MB231 concentration x1, 4 hr
[23] = Table 55, BG subtracted, MB231 concentration x1/5, 4 hr
[24] = Table 55, BG subtracted, MB231 concentration x1/25, 4 hr
[25] = Table 55, BG subtracted, MB231 concentration x1/125, 4 hr
[26] = Table 55, BG subtracted, MB231 concentration x1/625, 4 hr
[27] = Table 55, BG subtracted, MB231 concentration x1/3,125, 4 hr
[28] = Table 55, BG subtracted, MB231 concentration x1/15,625, 4 hr
[29] = Table 55, BG subtracted, MB231 concentration x1, 4 hr

TAMRA-GGPLGLAGGK(TQ3) ({TAMRA}-GGPLGLAGGK(TQ3)) [Custom #2T]
Particle Expected value λ [1, 3]: 0.2937 | Particle Positive ratio [1, 3]: 0.2545 | Particle Expected value λ [1, 4]: 0.07748 | Particle Positive ratio [1, 4]: 0.07456

[5-FAM]GGPLGLAGGK(TQ2)[OH] (5FAM-GGPLGLAGGK(TQ2)-OH) [Custom #2]
fluorescence intensity at the same extracellular vesicle concentration [2]: higher than the fluorescence intensity from Custom #1 | number of the extracellular vesicles ([1]; Example 49, PS Capture Tim4 particles, 30° C., 4 h): 1.18×10^5 /μg of protein | number of the extracellular vesicles ([1]; Example 50, 6×10^5 particles, 2 μg of protein): 1.77×10^5 | expected value Δλ per particle (value obtained by subtracting BG) at a concentration of x1 [1, 5]: 0.2953 | number of the extracellular vesicles [1, 5]: 8.86×10^4 /μg of protein | Particle Expected value λ [1, 6]: 0.2744 | Particle Number of positives [1, 6]: 557 | Particle Positive ratio [1, 6]: 0.24 | Particle Expected value λ [1, 7]: 0.09639 | Particle Number of positives [1, 7]: 246 | Particle Positive ratio [1, 7]: 0.09189 | Particle Expected value λ [1, 8]: 0.03784 | Particle Number of positives [1, 8]: 181 | Particle Positive ratio [1, 8]: 0.03714 | Particle Expected value λ [1, 9]: 0.01211 | Particle Number of positives [1, 9]: 37 | Particle Positive ratio [1, 9]: 0.01204 | Particle Expected value λ [1, 10]: 0.00551 | Particle Number of positives [1, 10]: 17 | Particle Positive ratio [1, 10]: 0.00549 | Particle Expected value Δλ [1, 11]: 0.2716 | Particle Δ Number of positives [1, 11]: 552 | Particle Δ Positive ratio [1, 11]: 0.2378 | Particle Expected value Δλ [1, 12]: 0.09434 | Particle Δ Number of positives [1, 12]: 241 | Particle Δ Positive ratio [1, 12]: 0.09003 | Particle Expected value Δλ [1, 13]: 0.03678 | Particle Δ Number of positives [1, 13]: 176 | Particle Δ Positive ratio [1, 13]: 0.03611 | Particle Expected value Δλ [1, 14]: 0.01047 | Particle Δ Number of positives [1, 14]: 32 | Particle Δ Positive ratio [1, 14]: 0.01041 | Particle Expected value Δλ [1, 15]: 0.00388 | Particle Δ Number of positives [1, 15]: 12 | Particle Δ Positive ratio [1, 15]: 0.00388 | Particle Expected value λ [1, 16]: 0.1892 | Particle Number of positives [1, 16]: 1,235 | Particle Positive ratio [1, 16]: 0.1723 | Particle Expected value λ [1, 17]: 0.1044 | Particle Number of positives [1, 17]: 643 | Particle Positive ratio [1, 17]: 0.09911 | Particle Expected value λ [1, 18]: 0.06097 | Particle Number of positives [1, 18]: 385 | Particle Positive ratio [1, 18]: 0.05915 | Particle Expected value λ [1, 19]: 0.03309 | Particle Number of positives [1, 19]: 225 | Particle Positive ratio [1, 19]: 0.03255 | Particle Expected value λ [1, 20]: 0.02229 | Particle Number of positives [1, 20]: 166 | Particle Positive ratio [1, 20]: 0.02204 | Particle Expected value λ [1, 21]: 0.01639 | Particle Number of positives [1, 21]: 88 | Particle Positive ratio [1, 21]: 0.01625 | Particle Expected value λ [1, 22]: 0.2912 | Particle Number of positives [1, 22]: 1,744 | Particle Positive ratio [1, 22]: 0.2526 | Particle Expected value Δλ [1, 23]: 0.1853 | Particle Δ Number of positives [1, 23]: 1,212 | Particle Δ Positive ratio [1, 23]: 0.1691 | Particle Expected value Δλ [1, 24]: 0.1004 | Particle Δ Number of positives [1, 24]: 620 | Particle Δ Positive ratio [1, 24]: 0.09556 | Particle Expected value Δλ [1, 25]: 0.05722 | Particle Δ Number of positives [1, 25]: 362 | Particle Δ Positive ratio [1, 25]: 0.05562 | Particle Expected value Δλ [1, 26]: 0.02966 | Particle Δ Number of positives [1, 26]: 202 | Particle Δ Positive ratio [1, 26]: 0.02922 | Particle Expected value Δλ [1, 27]: 0.01917 | Particle Δ Number of positives [1, 27]: 143 | Particle Δ Positive ratio [1, 27]: 0.01899 | Particle Expected value Δλ [1, 28]: 0.01208 | Particle Δ Number of positives [1, 28]: 65 | Particle Δ Positive ratio [1, 28]: 0.01201 | Particle Expected value Δλ [1, 29]: 0.2868 | Particle Δ Number of positives [1, 29]: 1,721 | Particle Δ Positive ratio [1, 29]: 0.2493 | Particle Expected value λ [1, 3]: 0.2899 | Particle Positive ratio [1, 3]: 0.2517 | Particle Expected value λ [1, 4]: 0.3046 | Particle Positive ratio [1, 4]: 0.2626
